Experimental data published in paper PMC10235969 (Proceedings of the National Academy of Sciences of the …, 2023).

B2: Drosophila melanogaster Mon1 (natural protein)
chain: MEVEQTSVRSDTNSTCEYLDAEGDPESPNLYQEADPDQEAEQQNHSIISELRDGLGTMRDNSALSPEPGQENKGLAASVESLALSTSTSAKTEDSIGGGLEEEYDYQHDSLWQGQKKHIFILSEAGKPIFSLHGNEDKLATLFGVIQALVSFVQMGQDAITSIHAGGIKFAFMQRSSLILVAASRSNMSVQQLQLQLGDVYNQILSILTYSHMTKIFERRKNFDLRRLLSGSERLFYNLLANDSSSAKVSNNIFTFLTNSIRVFPLPTTIRSQITSAIQSNCSKIKNLVFAVLIANNKLIALVRMKKYSIHPADLRLIFNLVECSESFKSSENWSPICLPKFDMNGYLHAHVSYLADDCQACLLLLSVDRDAFFTLAEAKAKITEKLRKSHCLEAINEELQQPFNAKLYQQVVGIPELRHFLYKPKSTAQLLCPMLRHPYKSLTELERLEAIYCDLLHRIHNSSRPLKLIYEMKEREVVLAWATGTYELYAIFEPVVDKATVIKYVDKLIKWIEKEYDVYFIRNHATF

Columns and labels:
[1] = molecular target: T1, Drosophila melanogaster RMC1 (Drosophila melanogaster, UniProt Q9VRX1 1-642); experiment: cryo-EM structure
T1 sequence: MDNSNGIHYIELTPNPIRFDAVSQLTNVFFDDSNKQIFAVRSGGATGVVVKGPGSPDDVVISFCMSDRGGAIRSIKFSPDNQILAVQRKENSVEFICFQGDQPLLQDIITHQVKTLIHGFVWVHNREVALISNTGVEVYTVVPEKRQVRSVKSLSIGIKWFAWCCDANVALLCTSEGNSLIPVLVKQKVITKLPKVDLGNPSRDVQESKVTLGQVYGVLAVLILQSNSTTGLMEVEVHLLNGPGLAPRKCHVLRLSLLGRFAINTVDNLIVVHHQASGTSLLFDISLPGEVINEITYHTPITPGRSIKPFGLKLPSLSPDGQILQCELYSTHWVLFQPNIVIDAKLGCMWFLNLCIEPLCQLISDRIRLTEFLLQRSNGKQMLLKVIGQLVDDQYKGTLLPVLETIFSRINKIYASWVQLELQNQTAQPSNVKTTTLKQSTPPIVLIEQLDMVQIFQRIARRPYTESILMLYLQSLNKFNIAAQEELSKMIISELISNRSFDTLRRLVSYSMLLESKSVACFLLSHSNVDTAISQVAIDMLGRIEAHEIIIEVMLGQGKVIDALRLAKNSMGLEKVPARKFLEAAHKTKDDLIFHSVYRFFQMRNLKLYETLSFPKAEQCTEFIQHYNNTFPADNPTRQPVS

[2] = molecular target: B2; experiment: cryo-EM structure

B1: Drosophila melanogaster Ccz1 (natural protein)
chain: MAKLLQRVEITLRSFYIFNSTFGQVEGEEHKKVLFYHPNDIELNTKIKDVGLSEAIIRFTGTFTSEDDCQALHTQKTTQLFYQPEPGYWLVLVLNVPKEVRLKEGVEVADYRGAEISDRIYRAILRQCYQMFRFQNGCFSSCGSEEPNPDKRRELLCQKLLQFYDQHLTNLRDPAQCDIIDMLHSIQYLPLDKTLFLRAQNFGTLCETFPDIKESIMLYQEQVLCGGKLSPEDLHCVHSYVVQHVLKVEASSSTIAVSPSLKRSISECQVGGFVRSRQKVAGDEHDAVNEEDHPMKVYVTLDKEAKPYYLLIYRALHITLCLFLNADQVAPKQDLYDDLHAYMAPQLTSLARDISSELTKEAVGAAGQDNSSGNSETAPKYLFINEQSLQHHTNFQRHLPQGLPRNVLSIIADLANGSGKAEMESAPAEEVQVKTTNDYWIVKRRCNYRQYYVILCNSKATLLDVTQEARRIFEQELTDDVFFDK
Q: Which results are given for B1?
A: binding result [1]: binds; binding result [2]: binds

Q: Does B2 bind [1]?
A: binds
